From the supplement of paper PMC9876800

System: peptide library, one residue held at a place counted from the S/T acceptor
Experiment: relative phosphorylation of the sub-library (ratio to the mean residue at this position); human; higher = residue favoured
Conditions: K fixed; at +2
Method in brief: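 Spots on streptavidin membranes were phosphorimaged and quantified by densitometry to measure phosphorylation of biotinylated degenerate peptide sub-libraries by purified recombinant kinases, human or orthologue constructs. The reactions ran in 384-well plates for 90 min under kinase-specific conditions, with peptides at 50 μM and 50 μM ATP spiked with γ-32P-ATP. Relative sub-library phosphorylation is the ratio to the mean residue at that position.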

CAMK2D, construct: Full length, sequence (Q13557 whole entry, looked up): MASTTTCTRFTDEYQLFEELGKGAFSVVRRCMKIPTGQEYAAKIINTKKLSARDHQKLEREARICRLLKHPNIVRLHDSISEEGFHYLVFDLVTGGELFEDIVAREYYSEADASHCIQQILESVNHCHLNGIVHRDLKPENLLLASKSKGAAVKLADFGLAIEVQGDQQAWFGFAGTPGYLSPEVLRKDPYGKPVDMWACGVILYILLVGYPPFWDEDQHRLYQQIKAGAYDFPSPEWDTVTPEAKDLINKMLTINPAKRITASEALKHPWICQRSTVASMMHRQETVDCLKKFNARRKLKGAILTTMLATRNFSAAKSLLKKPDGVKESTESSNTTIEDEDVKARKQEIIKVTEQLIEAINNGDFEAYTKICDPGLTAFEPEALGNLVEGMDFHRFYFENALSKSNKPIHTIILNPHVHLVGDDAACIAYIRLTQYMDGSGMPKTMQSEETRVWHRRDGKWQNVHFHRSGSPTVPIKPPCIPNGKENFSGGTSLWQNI
CSNK1A1L, construct: Full length, sequence (Q8N752 whole entry, looked up): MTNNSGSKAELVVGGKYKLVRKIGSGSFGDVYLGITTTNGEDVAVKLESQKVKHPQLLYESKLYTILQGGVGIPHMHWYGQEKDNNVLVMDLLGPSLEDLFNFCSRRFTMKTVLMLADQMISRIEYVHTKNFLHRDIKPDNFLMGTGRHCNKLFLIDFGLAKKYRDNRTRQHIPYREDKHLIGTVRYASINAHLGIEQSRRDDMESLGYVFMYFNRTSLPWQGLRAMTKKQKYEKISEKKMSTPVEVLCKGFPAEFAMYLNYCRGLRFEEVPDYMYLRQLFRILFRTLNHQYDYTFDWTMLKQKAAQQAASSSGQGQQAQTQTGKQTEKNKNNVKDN
CDKL1, construct: aa2-304, sequence (Q00532 2-304, looked up): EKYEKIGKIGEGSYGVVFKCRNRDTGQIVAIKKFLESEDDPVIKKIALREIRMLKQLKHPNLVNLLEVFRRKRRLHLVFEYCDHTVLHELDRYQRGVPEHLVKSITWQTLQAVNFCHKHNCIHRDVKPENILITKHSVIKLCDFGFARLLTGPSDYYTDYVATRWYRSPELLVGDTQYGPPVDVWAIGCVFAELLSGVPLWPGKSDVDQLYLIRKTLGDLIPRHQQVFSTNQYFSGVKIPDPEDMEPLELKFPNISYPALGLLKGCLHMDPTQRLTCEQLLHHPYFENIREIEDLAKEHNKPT
CSNK1G3, construct: Full length, sequence (Q9Y6M4 whole entry, looked up): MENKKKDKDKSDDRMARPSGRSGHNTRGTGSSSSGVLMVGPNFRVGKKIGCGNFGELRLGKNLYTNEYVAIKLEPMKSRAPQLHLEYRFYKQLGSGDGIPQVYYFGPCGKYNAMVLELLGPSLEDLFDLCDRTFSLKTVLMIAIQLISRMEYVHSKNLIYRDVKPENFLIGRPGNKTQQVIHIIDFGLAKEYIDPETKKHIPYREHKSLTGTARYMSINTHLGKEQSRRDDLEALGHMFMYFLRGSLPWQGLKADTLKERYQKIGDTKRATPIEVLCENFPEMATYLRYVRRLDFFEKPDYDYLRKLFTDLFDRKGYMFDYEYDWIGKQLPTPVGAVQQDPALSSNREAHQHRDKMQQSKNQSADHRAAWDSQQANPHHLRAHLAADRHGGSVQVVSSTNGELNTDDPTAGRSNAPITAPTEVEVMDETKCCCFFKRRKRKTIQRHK
PAK1, construct: aa150-end, sequence (Q13153 150-545, looked up): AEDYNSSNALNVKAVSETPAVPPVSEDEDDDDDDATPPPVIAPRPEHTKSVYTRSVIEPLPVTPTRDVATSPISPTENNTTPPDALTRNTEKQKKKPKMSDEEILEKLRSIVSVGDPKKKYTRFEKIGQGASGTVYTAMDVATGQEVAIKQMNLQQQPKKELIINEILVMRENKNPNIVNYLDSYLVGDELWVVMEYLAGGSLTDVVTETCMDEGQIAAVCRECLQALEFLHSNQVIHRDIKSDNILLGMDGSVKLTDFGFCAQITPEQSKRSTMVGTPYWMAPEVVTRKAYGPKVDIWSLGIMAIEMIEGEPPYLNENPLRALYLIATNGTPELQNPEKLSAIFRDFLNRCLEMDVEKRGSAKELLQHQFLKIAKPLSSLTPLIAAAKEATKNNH
ACVR1B, construct: aa150-end, sequence (P36896 150-505, looked up): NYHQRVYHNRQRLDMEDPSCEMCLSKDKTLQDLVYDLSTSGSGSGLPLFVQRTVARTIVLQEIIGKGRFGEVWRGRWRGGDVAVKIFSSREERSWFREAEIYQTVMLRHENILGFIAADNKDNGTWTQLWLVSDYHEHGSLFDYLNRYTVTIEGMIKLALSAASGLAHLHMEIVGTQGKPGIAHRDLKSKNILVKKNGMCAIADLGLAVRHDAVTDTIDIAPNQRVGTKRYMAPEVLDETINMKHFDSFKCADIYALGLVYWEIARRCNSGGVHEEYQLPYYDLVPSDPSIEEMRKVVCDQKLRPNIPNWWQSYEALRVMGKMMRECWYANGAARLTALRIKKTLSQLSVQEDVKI
TSSK1B, construct: Full length, sequence (Q9BXA7 whole entry, looked up): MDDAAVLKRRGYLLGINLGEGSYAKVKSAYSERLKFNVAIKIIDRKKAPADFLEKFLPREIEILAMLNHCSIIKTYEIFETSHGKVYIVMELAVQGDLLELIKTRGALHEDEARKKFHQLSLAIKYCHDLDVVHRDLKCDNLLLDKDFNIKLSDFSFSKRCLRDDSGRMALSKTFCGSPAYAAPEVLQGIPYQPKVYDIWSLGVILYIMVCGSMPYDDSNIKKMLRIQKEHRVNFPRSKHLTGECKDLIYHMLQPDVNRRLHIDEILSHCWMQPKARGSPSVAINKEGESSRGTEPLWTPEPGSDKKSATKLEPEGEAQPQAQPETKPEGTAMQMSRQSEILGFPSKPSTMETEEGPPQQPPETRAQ
CIT, construct: aa1-449, sequence (O14578 1-449, looked up): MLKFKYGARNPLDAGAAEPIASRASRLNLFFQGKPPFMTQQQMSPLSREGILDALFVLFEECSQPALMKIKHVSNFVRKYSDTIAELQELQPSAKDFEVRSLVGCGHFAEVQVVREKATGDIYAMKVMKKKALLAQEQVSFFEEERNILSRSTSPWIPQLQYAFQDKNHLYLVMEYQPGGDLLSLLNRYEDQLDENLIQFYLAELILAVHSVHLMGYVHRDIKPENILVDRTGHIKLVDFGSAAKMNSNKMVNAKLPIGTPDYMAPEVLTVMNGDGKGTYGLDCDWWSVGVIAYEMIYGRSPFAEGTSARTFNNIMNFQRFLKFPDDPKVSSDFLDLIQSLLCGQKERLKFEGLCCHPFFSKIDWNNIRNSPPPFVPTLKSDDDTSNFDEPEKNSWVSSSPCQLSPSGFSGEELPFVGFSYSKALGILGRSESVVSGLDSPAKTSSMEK

Row | Substance | relative phosphorylation
1 | PAK1, construct: aa150-end (from UniProt Q13153) | 0.604
2 | CAMK2D, construct: Full length (from UniProt Q13557) | 0.569
3 | CDKL1, construct: aa2-304 (from UniProt Q00532) | 1.52
4 | ACVR1B, construct: aa150-end (from UniProt P36896) | 0.649
5 | TSSK1B, construct: Full length (from UniProt Q9BXA7) | 0.385
6 | CSNK1A1L, construct: Full length (from UniProt Q8N752) | 1.02
7 | CSNK1G3, construct: Full length (from UniProt Q9Y6M4) | 0.952

Same assay, conditions: K fixed; at +3

Row | Substance | relative phosphorylation
8 | CIT, construct: aa1-449 (from UniProt O14578) | 0.781
9 | PAK1, construct: aa150-end (from UniProt Q13153) | 0.775
10 | CAMK2D, construct: Full length (from UniProt Q13557) | 0.669
11 | CDKL1, construct: aa2-304 (from UniProt Q00532) | 1.43
12 | ACVR1B, construct: aa150-end (from UniProt P36896) | 0.605
13 | TSSK1B, construct: Full length (from UniProt Q9BXA7) | 0.945
14 | CSNK1A1L, construct: Full length (from UniProt Q8N752) | 0.845
15 | CSNK1G3, construct: Full length (from UniProt Q9Y6M4) | 0.672

Same assay, conditions: K fixed; at +4

Row | Substance | relative phosphorylation
16 | CIT, construct: aa1-449 (from UniProt O14578) | 0.858
17 | PAK1, construct: aa150-end (from UniProt Q13153) | 1.08
18 | CAMK2D, construct: Full length (from UniProt Q13557) | 0.688
19 | CDKL1, construct: aa2-304 (from UniProt Q00532) | 1.31
20 | ACVR1B, construct: aa150-end (from UniProt P36896) | 0.896
21 | TSSK1B, construct: Full length (from UniProt Q9BXA7) | 0.621
22 | CSNK1A1L, construct: Full length (from UniProt Q8N752) | 1.09
23 | CSNK1G3, construct: Full length (from UniProt Q9Y6M4) | 0.822

Same assay, conditions: K fixed; at -1

Row | Substance | relative phosphorylation
24 | CIT, construct: aa1-449 (from UniProt O14578) | 2.2
25 | PAK1, construct: aa150-end (from UniProt Q13153) | 1.72
26 | CAMK2D, construct: Full length (from UniProt Q13557) | 1.21
27 | CDKL1, construct: aa2-304 (from UniProt Q00532) | 1.61
28 | ACVR1B, construct: aa150-end (from UniProt P36896) | 0.747
29 | TSSK1B, construct: Full length (from UniProt Q9BXA7) | 2.08
30 | CSNK1A1L, construct: Full length (from UniProt Q8N752) | 1.2
31 | CSNK1G3, construct: Full length (from UniProt Q9Y6M4) | 1

Same assay, conditions: K fixed; at -2

Row | Substance | relative phosphorylation
32 | CIT, construct: aa1-449 (from UniProt O14578) | 3.1
33 | PAK1, construct: aa150-end (from UniProt Q13153) | 1.32
34 | CAMK2D, construct: Full length (from UniProt Q13557) | 0.858
35 | CDKL1, construct: aa2-304 (from UniProt Q00532) | 0.898
36 | ACVR1B, construct: aa150-end (from UniProt P36896) | 0.483
37 | TSSK1B, construct: Full length (from UniProt Q9BXA7) | 2.53
38 | CSNK1A1L, construct: Full length (from UniProt Q8N752) | 1.35
39 | CSNK1G3, construct: Full length (from UniProt Q9Y6M4) | 0.832

Same assay, conditions: K fixed; at -3

Row | Substance | relative phosphorylation
40 | CIT, construct: aa1-449 (from UniProt O14578) | 1.76
41 | PAK1, construct: aa150-end (from UniProt Q13153) | 2.34
42 | CAMK2D, construct: Full length (from UniProt Q13557) | 1.68
43 | CDKL1, construct: aa2-304 (from UniProt Q00532) | 0.852
44 | ACVR1B, construct: aa150-end (from UniProt P36896) | 0.798
45 | TSSK1B, construct: Full length (from UniProt Q9BXA7) | 2.55
46 | CSNK1A1L, construct: Full length (from UniProt Q8N752) | 1.13
47 | CSNK1G3, construct: Full length (from UniProt Q9Y6M4) | 0.652

Same assay, conditions: K fixed; at -4

Row | Substance | relative phosphorylation
48 | CIT, construct: aa1-449 (from UniProt O14578) | 2.77
49 | PAK1, construct: aa150-end (from UniProt Q13153) | 1.71
50 | CAMK2D, construct: Full length (from UniProt Q13557) | 0.967
51 | CDKL1, construct: aa2-304 (from UniProt Q00532) | 1.22
52 | ACVR1B, construct: aa150-end (from UniProt P36896) | 0.987
53 | TSSK1B, construct: Full length (from UniProt Q9BXA7) | 2.11
54 | CSNK1A1L, construct: Full length (from UniProt Q8N752) | 1.24
55 | CSNK1G3, construct: Full length (from UniProt Q9Y6M4) | 0.763

Same assay, conditions: K fixed; at -5

Row | Substance | relative phosphorylation
56 | CIT, construct: aa1-449 (from UniProt O14578) | 1.75
57 | PAK1, construct: aa150-end (from UniProt Q13153) | 1.88
58 | CAMK2D, construct: Full length (from UniProt Q13557) | 0.794
59 | CDKL1, construct: aa2-304 (from UniProt Q00532) | 1.08
60 | ACVR1B, construct: aa150-end (from UniProt P36896) | 1.11
61 | TSSK1B, construct: Full length (from UniProt Q9BXA7) | 0.612
62 | CSNK1A1L, construct: Full length (from UniProt Q8N752) | 1.27
63 | CSNK1G3, construct: Full length (from UniProt Q9Y6M4) | 0.896

Same assay, conditions: L fixed; at +1

Row | Substance | relative phosphorylation
64 | CIT, construct: aa1-449 (from UniProt O14578) | 1.02
65 | PAK1, construct: aa150-end (from UniProt Q13153) | 0.969
66 | CAMK2D, construct: Full length (from UniProt Q13557) | 1.44
67 | CDKL1, construct: aa2-304 (from UniProt Q00532) | 0.755
68 | ACVR1B, construct: aa150-end (from UniProt P36896) | 1.05
69 | TSSK1B, construct: Full length (from UniProt Q9BXA7) | 1.03
70 | CSNK1A1L, construct: Full length (from UniProt Q8N752) | 1.19
71 | CSNK1G3, construct: Full length (from UniProt Q9Y6M4) | 2.24

Same assay, conditions: L fixed; at +2

Row | Substance | relative phosphorylation
72 | CIT, construct: aa1-449 (from UniProt O14578) | 0.768
73 | PAK1, construct: aa150-end (from UniProt Q13153) | 1.09
74 | CAMK2D, construct: Full length (from UniProt Q13557) | 0.553
75 | CDKL1, construct: aa2-304 (from UniProt Q00532) | 0.898
76 | ACVR1B, construct: aa150-end (from UniProt P36896) | 1.22
77 | TSSK1B, construct: Full length (from UniProt Q9BXA7) | 1.53
78 | CSNK1A1L, construct: Full length (from UniProt Q8N752) | 0.964
79 | CSNK1G3, construct: Full length (from UniProt Q9Y6M4) | 1.1

Same assay, conditions: L fixed; at +3

Row | Substance | relative phosphorylation
80 | CIT, construct: aa1-449 (from UniProt O14578) | 0.995
81 | PAK1, construct: aa150-end (from UniProt Q13153) | 1.04
82 | CAMK2D, construct: Full length (from UniProt Q13557) | 0.894
83 | CDKL1, construct: aa2-304 (from UniProt Q00532) | 0.928
84 | ACVR1B, construct: aa150-end (from UniProt P36896) | 1.01
85 | TSSK1B, construct: Full length (from UniProt Q9BXA7) | 0.758
